± gives the standard error. Variants at the floor of the assay were thinned out.
B1: glmS ribozyme (parent)
chain: AUAAAAGCGCCAGAACUACAGAAAUGUAGUUGACGAGGAGGAGGUUUAUCGAAUUUUCGGCGGAUGCCUCCAAA

Variants of: B1
Assay: self-cleavage kobs at 2500 uM GlcN6P; higher = faster cleavage; RNA array
Settings: with glucosamine-6-phosphate
Outline: (§1)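 Over ~14 h at 37 °C, tiles were imaged as glucosamine-6-phosphate (40 μM to 10 mM) in HEPES/KCl/Mg(OAc)2 buffer flowed across sequenced MiSeq chips. The chips carried barcoded ribozyme variants transcribed in situ by E. coli RNA polymerase and tracked with a hybridised Cy3 probe. After normalisation to baseline and to non-cleaving reference variants, one- or two-exponential decay fits of per-tile medians gave kobs. kcat and KM followed from weighted Michaelis–Menten fits across concentrations.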

Row | Variant | self-cleavage kobs at 2500 uM GlcN6P [s⁻¹]
1 | AUAAAAGCGACAGAACUACAGAAAUGUAGUUGACGAGGAGGAGGUUUAUCGAACUUUCGGCGGAUGCCUCCAAA | < 1e-05
2 | AUAAAAGCGCUAGACCUACAGAAAUGUAGUUGACGAGGAGGAGGUUUAUCGAAUUUUCGGCGUAAGACUCCAAA | < 1e-05
3 | AUAAAAGCGUCAGAACUACAGAAAUGUAGUUGACGAGGAGGAGGUUGAUCGUAUUUUCGGCGGAUGCCACCAAA | 7.36e-05 ± 3.5e-05
4 | AUAAAAGCGGCAGAACUACAGAAAUGUAGUUGACUAGGAGGAGGUGUAUCGAAUUUUCGGCGGAUGCAUCCAAA | < 1e-05
5 | AUAAAAGCGACAGAACUACAGAAAUGUAGUUGACGAAGAGGAGGUUUAUCGACUUUUCGGCGGAUGCCUCCAAA | < 1e-05
6 | AUAAAAGCGCGAGAACUACAGAAAUGUAGUUGACGAGGAGGAGGUUUAUCGAAUUUUCGGACGAUGCCUCCAAA | < 1e-05
7 | AUAAAAGCGCUAGAACUACAGAAAUGUAAUUGACGAGUAGGAGGUUCAUCGAAUUUUCGGCGGAUGCCUCCAAA | < 1e-05
8 | AUAAAAGCGGCAGAACUACAGAAAUGUAGUUGAUGAGGAGGAGGUCUAUCGAAUUUUCGGCGGAUGCCUUCAAA | < 1e-05
9 | AUAAAAGCGCAAGAAUUACAGAAAUGUAGUUGACGAGGAGGAGGUUUAUCGAAUUUUCGGCGGAUGCCUCUAAA | 0.000223 ± 5.3e-05
10 | AUAAAAGCGACAGAACUACAGAAAUGUAGUUGACGAGGAGGAGGUUGAUCGAAUUUUCUGCGGAUGCUUCCAAA | 5.63e-05 ± 1.7e-05
11 | AUAAAAGCGGCAGAAGUACAGAAAUGUAGUUCACGAGGAGGUGGUUUAUCGAAUUUUCGUCGGAUGCCUCCAAA | < 1e-05
12 | AUAAAAGCGACAGAACUACAGAAAUGUAGUUGACGAGGAAGAGGUUCGUCGAAUUUUCGGCGGAUGCCUUCAAA | < 1e-05
13 | AUAAAAGCGCAAGUACUACAGAAAUGUAGUUGACGAGGAGGAGGUUUAUCGAAUUUUCGGCGGAUGCCUCUAAA | 6.69e-05 ± 2.1e-05
14 | AUAAAAGCGUCUGAACUACAGAAAUGUAGUUGACGAGGAGGGGGUUUAUCGAAUUUUCGGCGGAUGCCUCCAAA | 0.000153 ± 5.7e-05
15 | AUAAAAGCGCGAGAACUACAGAAAUGUAGCUGACGAGGACGAGGUUUAUCGAAUUUUCGGCGGAUGCCUCCAAA | < 1e-05
16 | AUAAAAGCGCCCGAGCUACAGAAAUGUAGUUGACGAGGAGGACGUUUAUCGAAUUUUCGGCGGAUGCCUCCAAA | < 1e-05
17 | AUAAAAGCGACAGAACUACAGAAAUGUAGUUGACGAGGAGCAGGUUUAUGGACUUUUCGGCGGAUGCCUCCAAA | < 1e-05

Row | Variant | self-cleavage kobs at 2500 uM GlcN6P [s⁻¹]
18 | AUAAAAGCGGCAGCACUACAGAAAUGUAGGUGACGAGGAGGAAGUUUAUCGAAUUUUCGGCGGAUGCCUCCAAA | < 1e-05
19 | AUAAAAGCGCAAGAAAUACAGAAAUGUAGUUGACGAGGAGGCGGUUUAUCGAAUUUUCGGCGGAUGCCUCCAAA | < 1e-05
20 | AUAAAAGCGCGAGAACUACAGAAAUGUAGUUGACGAGGAGGAGGUUUACCGAAUUUUCGGCGGAUGCCUUCAAA | < 1e-05
21 | AUAAAAGCGCUAGAACUACAGAAAUGUAGUCGACGAGGAGGAGGUUUAUUGAAUUUUCGGCGGAUGCCUCCAAA | < 1e-05
22 | AUAAAAGCGCAGGAACUACAGAAAUGUAGUUGACGAGGAGGAGUUUUAUCGAAUUUUCGGCGGAUGCCUCAAAA | < 1e-05
23 | AUAAAAGCGCGCGAACUACAGAAAUGUAGUUGACGAGGAGGAGGUUUCUCGAAUUUUCGGCGGAUGCCUCCAAA | < 1e-05
24 | AUAAAAGCGACAGAACUACAGAAAUGUAGUUGACGAGGAGGAGGUUUCUCGAAUUUUCGGCGGUUGCCUCCAAA | < 1e-05
25 | AUAAAAGCGCAAGAACUACAGAAAUGUAGUUGACGAGGAGGAGGAUUAUCGAAUUAUCGGCGGAUGCCUCCAAA | 9.98e-05 ± 2.9e-05
26 | AUAAAAGCGCAAGAACUACAGAAAUGUAGUUGACGACUAGGAGGUUUAUCGAAUUUUCGGCGGAUGCCUCCAAA | < 1e-05
27 | AUAAAAGCGCAAGAACUACAGAAAUGUAGUUGACGAGGAGGAGGUUUAUCGAACUUUAGGCGGAUCCCUCCAAA | < 1e-05
28 | AUAAAAGCGCUGGAUCUACAGAAAUGUAGUUGACGAGGAGGAGGUUUAUCGAAUUUUCGGCGGAUGCCUCCAAA | 0.000175 ± 4.8e-05
29 | AUAAAAGCGGCAGAACUACAGAAAUGUAGUUGACGAGGAGGCGGGUUAUCGAAUUUUCGGCGGAUGCCUCCAAA | < 1e-05
30 | AUAAAAGCGACAGAACUACAGAAAUGUAGUUGACGAGGAGGGGGUUUAUCGAAUGUUCGGCGGAUGUCUCCAAA | < 1e-05
31 | AUAAAAGCGGCAGAAUUACAGAAAUGUAGUUGGCGAGGACGAGGUUGAUCGAAUUGUCGGCGGAUGCCUCCAAA | < 1e-05
32 | AUAAAAGCGCGAGAACUACAGAAAUGUAGUUGACGAGGAGGAUGUUUAUCGAAUUUUAGGCGGAUGCCUCCAAA | < 1e-05
33 | AUAAAAGCGCUAGAACUACAGAAAUGUAGUUGACGAGGAGGAGGUGUAUCGUAUUUUCGGCGGAUACCUCCAAA | < 1e-05

Variants of: B1
Assay: self-cleavage kobs at 10000 uM GlcN6P; higher = faster cleavage; RNA array
Settings: with glucosamine-6-phosphate
Outline: as §1

Row | Variant | self-cleavage kobs at 10000 uM GlcN6P [s⁻¹]
34 | AUAAAAGCGCAAGUACUACAGAAAUGUAGUUGACGAGGAGGAGGUUUAUCGAAUUUUCGGCGGAUGCCUCUAAA | 4.6e-05 ± 1.3e-05
35 | AUAAAAGCGCCCGAGCUACAGAAAUGUAGUUGACGAGGAGGACGUUUAUCGAAUUUUCGGCGGAUGCCUCCAAA | < 1e-05
36 | AUAAAAGCGCUGGAUCUACAGAAAUGUAGUUGACGAGGAGGAGGUUUAUCGAAUUUUCGGCGGAUGCCUCCAAA | 0.000193 ± 4.2e-05
37 | AUAAAAGCGACAGAACUACAGAAAUGUAGUUGACGAGGAGGGGGUUUAUCGAAUGUUCGGCGGAUGUCUCCAAA | < 1e-05

Source: the supplement of paper PMC7125110
